Data on 6 substances can be found in IntAct's records for PubMed 21664272.

The target of this test is T1, rasa1_human RASA1 (UniProt P20936).
T1 sequence: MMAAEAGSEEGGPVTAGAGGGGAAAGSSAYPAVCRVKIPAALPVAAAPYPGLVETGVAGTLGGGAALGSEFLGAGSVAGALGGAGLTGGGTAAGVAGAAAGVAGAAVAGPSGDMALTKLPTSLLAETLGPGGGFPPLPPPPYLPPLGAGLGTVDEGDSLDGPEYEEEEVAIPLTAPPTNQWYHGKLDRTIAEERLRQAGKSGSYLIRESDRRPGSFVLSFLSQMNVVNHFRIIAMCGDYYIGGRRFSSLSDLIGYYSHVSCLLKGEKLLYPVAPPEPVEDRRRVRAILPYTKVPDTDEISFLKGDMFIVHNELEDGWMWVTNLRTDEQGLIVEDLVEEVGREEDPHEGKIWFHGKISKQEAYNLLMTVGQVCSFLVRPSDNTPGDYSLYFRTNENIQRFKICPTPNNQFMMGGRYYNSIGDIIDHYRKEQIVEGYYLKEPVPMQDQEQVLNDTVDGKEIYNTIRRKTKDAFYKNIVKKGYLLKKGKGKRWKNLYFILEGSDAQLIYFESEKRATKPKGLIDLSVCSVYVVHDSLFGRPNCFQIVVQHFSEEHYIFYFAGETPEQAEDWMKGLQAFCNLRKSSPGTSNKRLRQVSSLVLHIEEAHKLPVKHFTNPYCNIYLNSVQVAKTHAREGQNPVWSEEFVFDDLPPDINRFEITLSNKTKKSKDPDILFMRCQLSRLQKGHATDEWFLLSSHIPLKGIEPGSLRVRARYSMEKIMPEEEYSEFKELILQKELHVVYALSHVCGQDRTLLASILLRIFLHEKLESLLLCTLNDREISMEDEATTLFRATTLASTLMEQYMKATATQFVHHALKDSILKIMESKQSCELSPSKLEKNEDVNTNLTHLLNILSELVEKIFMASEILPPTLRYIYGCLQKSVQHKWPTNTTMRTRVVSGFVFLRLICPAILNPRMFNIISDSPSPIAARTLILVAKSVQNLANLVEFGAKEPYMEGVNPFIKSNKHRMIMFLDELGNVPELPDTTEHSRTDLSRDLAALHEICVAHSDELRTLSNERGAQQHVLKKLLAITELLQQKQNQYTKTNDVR
On to “SH2/SH3 adapter protein NCK1 (Homo sapiens) (from UniProt P16333) W38K;W143K;W229K;R308K”, for which the “effect of a mutation on the interaction” value was “decreasing interaction”.
For the substance “SH2/SH3 adapter protein NCK1 (Homo sapiens) (from UniProt P16333) W143K;W229K;R308K”, the “effect of a mutation on the interaction” value is recorded as “decreasing interaction”.
The entry for “SH2/SH3 adapter protein NCK1 (Homo sapiens) (from UniProt P16333) W38K” is “decreasing interaction”.
Regarding “SH2/SH3 adapter protein NCK1 (Homo sapiens) (from UniProt P16333) W38K;W39K;W143K;W229K”, the “effect of a mutation on the interaction” value was “decreasing interaction”.
In the case of “SH2/SH3 adapter protein NCK1 (Homo sapiens) (from UniProt P16333) W229K”, the “effect of a mutation on the interaction” value is on record as “decreasing interaction”.
As for “SH2/SH3 adapter protein NCK1 (Homo sapiens) (from UniProt P16333) W38K;W229K;R308K”, the “effect of a mutation on the interaction” value is “disrupting interaction”.
